Assay results taken from article PMC2602864.

Target: EcoR124I core methyltransferase (HsdM2HsdS1) (not stated (hsd genes of the IncFIV plasmid R124, carried in E. coli)) (UniProt P10484)
Chain of UniProt P10484 (P10484 whole entry, chain 1 of 2): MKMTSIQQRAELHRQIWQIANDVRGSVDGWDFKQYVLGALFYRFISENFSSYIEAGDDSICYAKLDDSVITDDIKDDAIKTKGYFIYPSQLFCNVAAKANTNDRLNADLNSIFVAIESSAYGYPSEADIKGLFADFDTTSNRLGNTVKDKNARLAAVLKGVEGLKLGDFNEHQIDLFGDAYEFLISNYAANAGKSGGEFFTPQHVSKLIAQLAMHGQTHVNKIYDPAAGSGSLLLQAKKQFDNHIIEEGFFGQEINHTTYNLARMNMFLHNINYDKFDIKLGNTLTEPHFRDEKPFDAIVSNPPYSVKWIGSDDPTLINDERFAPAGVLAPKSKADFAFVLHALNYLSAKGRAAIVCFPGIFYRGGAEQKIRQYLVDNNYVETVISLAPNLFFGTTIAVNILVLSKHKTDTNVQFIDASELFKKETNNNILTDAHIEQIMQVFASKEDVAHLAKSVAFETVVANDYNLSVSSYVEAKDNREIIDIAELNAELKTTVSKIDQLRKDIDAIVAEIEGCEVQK
Chain of UniProt P10484 (P10485 whole entry, chain 2 of 2, further chain): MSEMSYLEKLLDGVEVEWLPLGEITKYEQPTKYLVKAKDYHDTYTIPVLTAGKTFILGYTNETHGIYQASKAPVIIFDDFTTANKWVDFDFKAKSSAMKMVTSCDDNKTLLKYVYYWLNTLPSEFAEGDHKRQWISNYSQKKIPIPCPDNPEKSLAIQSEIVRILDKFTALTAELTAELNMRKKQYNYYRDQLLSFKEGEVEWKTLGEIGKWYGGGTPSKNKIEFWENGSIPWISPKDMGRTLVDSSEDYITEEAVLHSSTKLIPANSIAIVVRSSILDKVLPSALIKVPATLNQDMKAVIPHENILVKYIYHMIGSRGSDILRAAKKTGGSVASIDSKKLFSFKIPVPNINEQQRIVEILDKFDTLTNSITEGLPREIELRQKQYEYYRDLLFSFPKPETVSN

B1: EcoR124I HsdR subunit, wild type (enzyme)
chain: MTHQTHTIAESNNFIVLDKYIKAEPTGDSYQSESDLERELIQDLRNQGYEFISVKSQSAMLANVREQLQNLNGVVFNDSEWRRFTEQYLDNPSDGILDKTRKIHIDYICDFIFDDERLENIYLIDKKNLMRNKVQIIQQFEQAGSHANRYDVTILVNGLPLVQIELKKRGVAIREAFNQIHRYSKESFNSENSLFKYLQLFVISNGTDTRYFANTTKRDKNSFDFTMNWAKSDNTLIKDLKDFTATCFQKHTLLNVLVNYSVFDSSQTLLVMRPYQIAATERILWKIKSSFTAKNWSKPESGGYIWHTTGSGKTLTSFKAARLATELDFIDKVFFVVDRKDLDYQTMKEYQRFSPDSVNGSENTAGLKRNLDKDDNKIIVTTIQKLNNLMKAESDLPVYNQQVVFIFDECHRSQFGEAQKNLKKKFKRYYQFGFTGTPIFPENALGSETTASVFGRELHSYVITDAIRDEKVLKFKVDYNDVRPQFKSLETETDEKKLSAAENQQAFLHPMRIQEITQYILNNFRQKTHRTFPGSKGFNAMLAVSSVDAAKAYYATFKRLQEEAANKSATYKPLRIATIFSFAANEEQNAIGEISDETFDTSAMDSSAKEFLDAAIREYNSHFKTNFSTDSNGFQNYYRDLAQRVKNQDIDLLIVVGMFLTGFDAPTLNTLFVDKNLRYHGLMQAFSRTNRIYDATKTFGNIVTFRDLERSTIDAITLFGDKNTKNVVLEKSYTEYMEGFTDAATGEAKRGFMTVVSELEQRFPDPTSIESEKEKKDFVKLFGEYLRAENILQNYDEFATLKALQQIDLSDPVAVEKFKAEHYVDDEKFAELQTIRLPADRKIQDYRSAYNDIRDWQRREKEAEKKEKSTTDWDDVVFEVDLLKSQEINLDYILGLIFEHNRQNKGKGEMIEEVKRLIRSSLGNRAKEGLVVDFIQQTNLDDLPDKASIIDAFFTFAQREQQREAEALIKEENLNEDAAKRYIRTSLKREYATENGTELNETLPKLSPLNPQYKTKKQAVFQKIVSFIEKFKGVGGKI
- mean lifetime of a DNA translocation event, R1 complex (one HsdR on the MTase), magnetic tweezers: 0.95 s
